In assay [1] the target is T1, Human complement protein C5 (human, UniProt P01031 19-673; P01031 678-1676).
For assay [2], the target named is T1, Human complement protein C5. Kind of assay: cell-based or functional assay.

T1 sequence (P01031 19-673, chain 1 of 2): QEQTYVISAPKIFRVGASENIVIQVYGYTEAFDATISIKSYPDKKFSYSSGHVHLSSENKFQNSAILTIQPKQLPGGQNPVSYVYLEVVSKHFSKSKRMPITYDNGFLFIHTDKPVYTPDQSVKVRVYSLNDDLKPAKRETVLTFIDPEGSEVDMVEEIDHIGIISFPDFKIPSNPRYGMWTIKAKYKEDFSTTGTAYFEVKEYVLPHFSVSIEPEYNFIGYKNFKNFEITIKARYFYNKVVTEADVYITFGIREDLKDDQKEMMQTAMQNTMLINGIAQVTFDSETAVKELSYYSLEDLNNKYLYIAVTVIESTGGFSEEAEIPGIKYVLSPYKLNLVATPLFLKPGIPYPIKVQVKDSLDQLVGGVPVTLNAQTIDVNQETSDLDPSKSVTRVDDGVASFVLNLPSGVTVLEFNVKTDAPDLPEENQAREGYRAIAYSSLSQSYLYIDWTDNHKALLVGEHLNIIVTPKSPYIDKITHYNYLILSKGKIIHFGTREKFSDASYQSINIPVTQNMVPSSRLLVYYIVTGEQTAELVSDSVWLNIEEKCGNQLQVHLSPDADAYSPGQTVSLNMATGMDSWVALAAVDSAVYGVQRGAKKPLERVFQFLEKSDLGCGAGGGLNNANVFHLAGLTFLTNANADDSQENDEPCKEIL
T1 sequence (P01031 678-1676, chain 2 of 2): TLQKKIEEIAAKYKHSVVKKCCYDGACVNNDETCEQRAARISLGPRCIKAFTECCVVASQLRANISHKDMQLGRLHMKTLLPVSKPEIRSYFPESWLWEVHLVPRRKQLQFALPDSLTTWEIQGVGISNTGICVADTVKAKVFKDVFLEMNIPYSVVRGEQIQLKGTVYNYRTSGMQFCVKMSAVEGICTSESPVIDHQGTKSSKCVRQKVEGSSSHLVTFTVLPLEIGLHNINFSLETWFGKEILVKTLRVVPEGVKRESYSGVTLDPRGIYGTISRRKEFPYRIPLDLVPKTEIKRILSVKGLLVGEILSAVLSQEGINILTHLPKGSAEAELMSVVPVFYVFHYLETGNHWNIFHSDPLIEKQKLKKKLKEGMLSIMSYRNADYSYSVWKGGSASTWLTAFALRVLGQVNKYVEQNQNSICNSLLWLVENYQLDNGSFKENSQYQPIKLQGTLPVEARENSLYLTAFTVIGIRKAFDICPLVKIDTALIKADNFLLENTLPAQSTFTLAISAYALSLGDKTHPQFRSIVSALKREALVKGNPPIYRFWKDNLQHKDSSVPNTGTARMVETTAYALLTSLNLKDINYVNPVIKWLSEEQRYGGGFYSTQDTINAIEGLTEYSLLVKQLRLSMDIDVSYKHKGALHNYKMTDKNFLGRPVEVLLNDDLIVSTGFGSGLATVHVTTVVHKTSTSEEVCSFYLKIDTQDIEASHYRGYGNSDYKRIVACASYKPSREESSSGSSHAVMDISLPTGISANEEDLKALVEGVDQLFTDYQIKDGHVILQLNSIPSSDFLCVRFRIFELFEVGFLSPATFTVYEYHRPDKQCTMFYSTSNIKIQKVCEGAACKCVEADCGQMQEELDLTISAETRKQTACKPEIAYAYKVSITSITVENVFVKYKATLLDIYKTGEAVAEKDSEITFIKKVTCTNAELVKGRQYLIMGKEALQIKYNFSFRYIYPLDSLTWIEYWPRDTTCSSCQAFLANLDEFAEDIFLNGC

B1: Ornithodoros moubata Complement Inhibitor with a His6 tag in the C-terminus (other)
chain: MDSESDCTGSEPVDAFQAFSEGKEAYVLVRSTDPKARDCLKGEPAGEKQDNTLPVMMTFKNGTDWASTDWTFTLDGAKVTATLGNLTQNREVVYDSQSHHCHVDKVEKEVPDYEMWMLDAGGLEVEVECCRQKLEELASGRNQMYPHLKDCGGGGSENLYFQGSHHHHHH
B1 yielded a 50% inhibitory concentration (IC50) in assay [1] of 1.5 nM. Further, the “IC50 of inhibition of hemolysis of antibody sensitized sheep erythrocytes” value in assay [2] lay within 0.3 to 0.5 nM.

What is called IC50 is the concentration at which inhibition is half-maximal.

Source of the values: US20190167760A1 (SWEDISH ORPHAN BIOVITRUM AB PUBL, published 2019).
